How the values were obtained:
Format in all cases: cell-based
[1] = tested on: BAF155, MED12, PABP1, NCOA3 and TET2; assay: Co-immunoprecipitation of BAF155, MED12, PABP1, NCOA3 and TET2 with FLAG-tagged CARM1, western blot; details: FLAG-tagged construct transiently transfected in HEK293T CARM1 KO cells; anti-FLAG IP
Text: The structure of the N-terminal domain of CARM1 (residues 28–140) resembles those of the EVH1 domains, a subfamily of PH domains that bind proline-rich sequences. With our discovery that CARM1 substrates contain proline-rich motifs, we posited that the protein's N-terminal domain may be required for substrate recognition. To test this hypothesis, we generated three CARM1 constructs: one full-length (CARM1 FL) and two N-terminal truncations CARM1 28–608 and CARM1 140–608 (Fig. 3a). […] We transiently transfected the three FLAG-tagged CARM1 fusion constructs in HEK293T CARM1 KO cells. CARM1 was immunoprecipitated from all three cell lines using anti-FLAG M2 resin, and four known CARM1 substrates/interactors (that is, BAF155 (ref. [20]), MED12 (ref. [30]), PABP1 (ref. [36]) and NCOA3 (ref. [19])) and newly identified TET2 were detected by western blotting. […] To globally assess the magnitude of reduction in CARM1–substrate interactions induced by the loss of the EVH1 domain, we visualized overall protein changes in CARM1 immunoprecipitates by western blotting using the ADMA antibody (Fig. 3c).
Cells were collected by trypsinization, washed with Dulbecco's phosphate buffer saline (Life Technologies, Carlsbad, CA) and lysed by suspension in lysis buffer (50 mM Tris-HCl pH 8.0, 150 mM NaCl, 10% glycerol, 0.5% Triton X-100 and 1 × protease inhibitor cocktail (Sigma-Aldrich)). After brief sonication followed by centrifugation, total protein was quantified using the BioRad Protein Assay (BioRad, Hercules, CA), and 20 μg protein was resolved by SDS–PAGE. Proteins were transferred to a nitrocellulose membrane for 1.5 h at 350 mA. Membranes were blocked with 5% nonfat milk at room temperature for 1 h and incubated overnight with diluted primary antibody at 4 °C. Membranes were then washed and incubated with HRP-conjugated secondary antibody for 1 h at room temperature. Signal was visualized by enhanced chemiluminescence reagents (Thermo Scientific, Rockford, IL) and X-ray film exposure followed by scanning and digitalization. […]

[2] = tested on: HEK293T CARM1 KO cells; assay: Rescue of endogenous BAF155 and MED12 methylation, transient transfection, western blot; details: transient expression in HEK293T CARM1 KO cells
Protocol: Next, we transiently transfected FL and the two aforementioned CARM1 truncations in HEK293T CARM1 KO cells and measured substrate methylation by western blotting with ADMA antibodies.
Cells were collected by trypsinization, washed with Dulbecco's phosphate buffer saline (Life Technologies, Carlsbad, CA) and lysed by suspension in lysis buffer (50 mM Tris-HCl pH 8.0, 150 mM NaCl, 10% glycerol, 0.5% Triton X-100 and 1 × protease inhibitor cocktail (Sigma-Aldrich)). After brief sonication followed by centrifugation, total protein was quantified using the BioRad Protein Assay (BioRad, Hercules, CA), and 20 μg protein was resolved by SDS–PAGE. Proteins were transferred to a nitrocellulose membrane for 1.5 h at 350 mA. Membranes were blocked with 5% nonfat milk at room temperature for 1 h and incubated overnight with diluted primary antibody at 4 °C. Membranes were then washed and incubated with HRP-conjugated secondary antibody for 1 h at room temperature. Signal was visualized by enhanced chemiluminescence reagents (Thermo Scientific, Rockford, IL) and X-ray film exposure followed by scanning and digitalization. Me-PABP1 and PABP1 antibodies, me-BAF155 antibody[20] and me-MED12 antibody[30] were generated previously in the Xu lab. FLAG antibody (catalogue #F7425) was purchased from Sigma and used at a dilution of 1:5,000; BAF155 antibody (sc-10756) was purchased from Santa Cruz and used at a dilution of 1:1,000; MED12 antibody (ab70842) was purchased from Abcam (Cambridge, MA) and used at 1:1,000 dilution.

[3] = tested on: HEK293T CARM1 KO cells; assay: Total ADMA-containing proteins co-precipitated with FLAG-tagged CARM1, western blot; details: FLAG IP probed with ADMA antibody; compared with CARM1 FL and CARM1 28–608
Text: The structure of the N-terminal domain of CARM1 (residues 28–140) resembles those of the EVH1 domains, a subfamily of PH domains that bind proline-rich sequences. With our discovery that CARM1 substrates contain proline-rich motifs, we posited that the protein's N-terminal domain may be required for substrate recognition. To test this hypothesis, we generated three CARM1 constructs: one full-length (CARM1 FL) and two N-terminal truncations CARM1 28–608 and CARM1 140–608 (Fig. 3a). […] We transiently transfected the three FLAG-tagged CARM1 fusion constructs in HEK293T CARM1 KO cells. CARM1 was immunoprecipitated from all three cell lines using anti-FLAG M2 resin, and four known CARM1 substrates/interactors (that is, BAF155 (ref. [20]), MED12 (ref. [30]), PABP1 (ref. [36]) and NCOA3 (ref. [19])) and newly identified TET2 were detected by western blotting. […]
Cells were collected by trypsinization, washed with Dulbecco's phosphate buffer saline (Life Technologies, Carlsbad, CA) and lysed by suspension in lysis buffer (50 mM Tris-HCl pH 8.0, 150 mM NaCl, 10% glycerol, 0.5% Triton X-100 and 1 × protease inhibitor cocktail (Sigma-Aldrich)). After brief sonication followed by centrifugation, total protein was quantified using the BioRad Protein Assay (BioRad, Hercules, CA), and 20 μg protein was resolved by SDS–PAGE. […]

B1: CARM1 140–608: CARM1 140–608 lacks the first 140 residues encompassing the EVH1 domain (protein)
chain: RTEESSAVQYFQFYGYLSQQQNMMQDYVRTGTYQRAILQNHTDFKDKIVLDVGCGSGILSFFAAQAGARKIYAVEASTMAQHAEVLVKSNNLTDRIVVIPGKVEEVSLPEQVDIIISEPMGYMLFNERMLESYLHAKKYLKPSGNMFPTIGDVHLAPFTDEQLYMEQFTKANFWYQPSFHGVDLSALRGAAVDEYFRQPVVDTFDIRILMAKSVKYTVNFLEAKEGDLHRIEIPFKFHMLHSGLVHGLAFWFDVAFIGSIMTVWLSTAPTEPLTHWYQVRCLFQSPLFAKAGDTLSGTCLLIANKRQSYDISIVAQVDQTGSKSSNLLDLKNPFFRYTGTTPSPPPGSHYTSPSENMWNTGSTYNLSSGMAVAGMPTAYDLSSVIASGSSVGHNNLIPLANTGIVNHTHSRMGSIMSTGIVQGSSGAQGSGGGSTSAHYAVNSQFTMGGPAISMASPMSIPTNTMHYGS
modifications: left off: FLAG, end not stated, kept
notes: CARM1 140–608 lacks the first 140 residues encompassing the EVH1 domain
Co-precipitation of BAF155, MED12, PABP1, NCOA3 and TET2 [1]: substantially lower amounts of them were detected
Methylation of endogenous BAF155 and MED12 [2]: failed to restore endogenous protein methylation
Abundance of CARM1-interacting (ADMA-containing) proteins [3]: global decrease in abundance of CARM1-interacting proteins
